Numbering of substitutions follows the chain as printed.
Experiments:
[1] = Body weight and food intake in C57BL/6 mice, unconjugated fusion proteins, 30 nmol/kg daily 10 days; format: in vivo; conditions: for Body weight reduction at 30 nmol/kg (% reduction compared to vehicle)(Day11) / Cumulative food intake reduction at 30 nmol/kg (% reduction compared to vehicle)(Day11): C57 mice, 30 nmol/kg daily, Day11, unconjugated fusion proteins
Method: (§1) 10 week old male C57BL/6 mice were injected everyday subcutaneously with 15 nmol/kg of the fusion protein conjugates (i.e., MLC002, MLC 004, MLC 005, MLC 006, MLC 007, MLC 008, and MLC 009) for 14 days. Food intake and body weight were measured daily and five animals were used for each treatment group. Body weight (BW) was monitored for each individual animal, but food intake for each group animals was measured together. Day 1 and Day 14 are first day and last day of molecule dosage. % BW loss=100*(BW on Day n-BW on Day 1)/(BW on Day 1). Cumulative food intake on Day n represents sum of food intake from Day 1 to Day n. Data are indicated as mean values and standard error (SEM) or pooled values. Statistical analysis was performed by One-way ANOVA. Body weight reduction on Day 11 is calculated by −1*(% BW loss−% BW loss of vehicle group); Cumulative food intake reduction is calculated by −100*(cumulative food intake-cumulative food intake of vehicle)/cumulative food intake of vehicle.
As described in the above method, a daily dose of 30 nmol/kg of the unconjugated fusion proteins (i.e., MLC100, MLC023, MLC022, MLC020, MLC003, MLC124, MLC021, MLC019, MLC102) were administered to C57BL/6 for 10 days. Data were calculated as above method. Day 1 and Day 10 are first day and last day of administration.

[2] = Pharmacokinetic measurement in mouse, single sc dose 30 nmol/kg, plasma ELISA; conditions: for Cmax: read-out: Cmax (nmol/L), single sc dose 30 nmol/kg; for exposure (Cmax and AUC) / half-life (T1/2): single sc 30 nmol/kg, in words; for AUC0-24 h / Terminal t1/2 / Tmax: single sc dose 30 nmol/kg
Method: Each fusion protein was injected subcutaneously into C57BL/6 mice (n=3/group) once and plasma samples were collected at designed time points and analyzed by ELISA method. Plasma concentrations are indicated as mean values and standard error (SEM).
6-8 week old male C57BL/6 mice were administrated in a single subcutaneous dose of 30 nmol/kg of the fusion protein conjugates or unconjugated fusion proteins (i.e., MLC002, MLC004, MLC005, MLC006, MLC007, MLC008, MLC009, MLC013, MLC017, MLC047, MLC074, MLC075, MLC089, MLC093, MLC003 and MLC019) (n=3/group). Plasma samples were collected pre-dose (−5 min), 0.5 hr, 1 hr, 2 hr, 4 hr, 6 hr, 8 hr, 12 hr, 24 hr, 48 hr and 72 hr after the injection. The concentrations of the fusion protein conjugates in the plasma were measured by an ELISA assay which has immunoreactivity towards both GDF15 and intact N-terminal of GLP-1. Based on the graph showing plasma concentration of each protein versus time after subcutaneous injection, the pharmacokinetic parameters (including Tmax, Cmax, T1/2, AUC) were calculated by WinNonlin software.

[3] = Body weight and food intake in C57BL/6 mice, fusion protein conjugates, 30 nmol/kg daily 10 days; format: in vivo
Method: as §1
Data were calculated in the same way as described above. Day 1 and Day 10 are first day and last day of the administration.
MLC014 was used as a negative control. MLC014 has an amino acid sequence of SEQ ID NO: 261, which contains a linker fused to the N terminal of GDF15, with a CRM conjugated to the lysine residue in the linker. Tirzepatide was also used as a control.

[4] = Efficacy in db/db mice: body weight, food intake, glucose, biomarkers, daily sc 14 days; format: in vivo
Method: (§2) FIGS. 4A-4D show In vivo efficacy in db/db mice. To evaluate the body weight, food intake and glucose effects of the fusion proteins, 8 week old male db/db mice were dosed everyday subcutaneously with 30 nmol/kg protein for 14 days. […] Compared to Vehicle control: ***, p<0.001. Data are expressed as mean values and standard error (SEM) for FIGS. 4A, 4B and 4D. n=5 for each treatment group. For FIG. 4C, a pooled food intake was measured for each treatment group.
FIGS. 5A-5F show In vivo efficacy in db/db mice. To evaluate the body weight, food intake and glucose effects of the fusion proteins, 8 week old male db/db mice were dosed everyday subcutaneously with different concentrations of proteins for 14 days. FIGS. 5A and 5B show body weight loss upon protein treatments from Day1 to Day15. […] Compared to Vehicle control: ***, p<0.001; **, p<0.01; *, p<0.05; ns, non-statistically significant; FIGS. 5D and 5E show cumulative food intake with protein treatments from Day1 to Day15. […] Compared to Vehicle control: ***, p<0.001**, p<0.01; *, p<0.05; ns, non-statistically significant. Data are expressed as mean values and standard error (SEM) for FIGS. 5A, 5B, 5C and 5F. n=5 for each treatment group. For FIGS. 5D and 5E, a pooled food intake was measured for each treatment group.
as §2, with “8A-8I” for “4A-4D”, “different concentrations of proteins” for “30 nmol/kg protein”, “FIGS. 8D-8F show body weight loss upon dose titrations of fusion protein conjugates. […]” for “Compared to Vehicle control: ***, p<0.001.”, “8A” for “4A, 4B”, “8C-I.” for “4D.”, “8B,” for “4C,”
Selected fusion protein conjugates are assessed in disease animal models (DIO mice, db/db mice, etc.) to determine body weight, food intake, glucose efficacy with dose responses. Some biomarkers are also measured, including fasting insulin, plasma triglyceride, cholesterol, liver triglyceride, and inflammatory biomarkers (ALT, AST and CRP).
8 week old male db/db mice were injected everyday subcutaneously with designated proteins for 14 days. Age matched lean mice were used as control. Food intake and body weight were measured daily and five animals were used for each treatment group. Fasting glucose were tested on designated days as shown in each figure. Body weight was monitored for each individual animal, but food intake for each group animals was measured together. Day 1 and Day 14 are first day and last day of molecule dosage. % BW loss=100*(BW on Day n-BW on Day 1)/(BW on Day 1). Cumulative food intake on Day n represents sum of food intake from Day 1 to Day n. Terminal blood was collected and EDTA-2K plasma was prepared and frozen at −80° C. for biomarker measurement. Liver was also collected and frozen in liquid nitrogen and store at −80° C. Data are indicated as mean values and standard error (SEM) or pooled values. Statistical analysis was performed by One-way ANOVA.

[5] = PK study in non-human primates, single sc dose 5 nmol/kg, plasma ELISA; conditions: monkey, single sc dose 5 nmol/kg
Method: Plasma samples were collected pre-dose (−5 min), 2 hr, 4 hr, 6 hr, 8 hr, 24 hr, 48 hr, 72 hr, 96 hr, 120 hr, 144 hr, 216 hr, 288 hr, 360 hr, 432 hr and 504 hr after the injection. The concentrations of the fusion protein conjugates in the plasma were measured by an ELISA assay which has immunoreactivity towards both GDF15 and intact N-terminal of GLP-1. Based on the graph showing plasma concentration of each protein versus time after subcutaneous injection, the pharmacokinetic parameters (including Tmax, Cmax, T1/2, AUC) were calculated by WinNonlin software.

[6] = 30 nmol/kg, FIG. 8A-C, versus Semaglutide, Tirzepatide and MLC014

B1: MLC023: unconjugated GLP-1/GDF15 fusion protein (protein)
chain: HGEGTFTSDVSSYLEEQAAKEFIAWLVRGGGGQEPGQEPGQEPARQGDHCPLGPGRCCRLHTVRASLEDLGWADWVLSPREVQVTMCIGACPSQFRAANLHAQIKTSLHRLKPDTVPAPCCVPASYNPMVLIQKTDTGVSLQTYDDLLAKDCHCI
Q: Which “Body weight reduction at 30 nmol/kg (% reduction compared to vehicle)(Day11)” value [1] does the source give for B1 here?
A: 12.5%

Q: What about the “Cumulative food intake reduction at 30 nmol/kg (% reduction compared to vehicle)(Day11)” value [1] of the same molecule?
A: 31.7%

B2: MLC019: unconjugated GLP-1/GDF15 fusion protein, linker of at least 80 residues (protein)
chain: HGEGTFTSDVSSYLEEQAAKEFIAWLVRGGGGQEPGAQPGQEPGAQPGQEPGAQPGQEPGAQPGQEPGAQPGQEPGAQPGAQPGAQPGAQPGAQPGAQPGAQPGAQPGAQPARQGDHCPLGPGRCCRLHTVRASLEDLGWADWVLSPREVQVTMCIGACPSQFRAANLHAQIKTSLHRLRPDTVPAPCCVPASYNPMVLIQRTDTGVSLQTYDDLLARDCHCI
Q: What does the source list for B2?
A: Body weight reduction at 30 nmol/kg (% reduction compared to vehicle)(Day11) [1]: 23.0%; Cumulative food intake reduction at 30 nmol/kg (% reduction compared to vehicle)(Day11) [1]: 48.6%; in vivo efficacy (food intake and body weight reduction) ([1]; unconjugated fusion proteins, 30 nmol/kg daily 10 days, by linker length): the most significant results among all the tested fusion proteins; Cmax [2]: 23.7 nmol/L; exposure (Cmax and AUC) [2]: much shorter half-lives and exposures than MLC002 and MLC004; half-life (T1/2) [2]: much shorter half-lives and exposures than MLC002 and MLC004; AUC0-24 h [2]: 0.2639 µM·h; Terminal t1/2 [2]: 4.8 h; Tmax [2]: 4.0 h

B3: MLC090: fusion polypeptide SEQ ID NO: 379 conjugated with Moiety C at 39C of Linker (conjugate)
chain: HGEGTFTSDVSSYLEEQAAKEFIAWLVRGGGGAQPGAQPGAQPGAQPGAQPGAQPGAQPGAQPGQEPGQCPGQEPGAQPGQEPGAQPGQEPGAQPGQEPGAQPGQEPGAQPARQGDHCPLGPGRCCRLHTVRASLEDLGWADWVLSPREVQVTMCIGACPSQFRAANLHAQIKTSLHRLKPDTVPAPCCVPASYNPMVLIQKTDTGVSLQTYDDLLAKDCHCI
modifications: Moiety C conjugated at linker Cys39
Q: Which “Body weight reduction at 30 nmol/kg (% reduction compared to vehicle)(Day11)” value [3] does the source give for B3 here?
A: 24.5%

Q: What about the “Cumulative food intake reduction at 30 nmol/kg (% reduction compared to vehicle)(Day11)” value [3] of the same molecule?
A: 44.4%

Q: And the body weight loss [4, 6]?
A: more body weight loss, food intake suppression and glycemic control

Q: And the food intake suppression [4, 6]?
A: more body weight loss, food intake suppression and glycemic control

Q: And the glycemic control [4, 6]?
A: more body weight loss, food intake suppression and glycemic control

Q: What about the efficacy ([4]; FIG. 8 study) of the same molecule?
A: better efficacy than Semaglutide and GDF15 derivative (MLC014)

Q: And the “AUC0-96 h” value [5]?
A: 1.987 µM·h

Q: And the “Terminal t1/2” value [5]?
A: 40 h

Q: And the “Tmax” value [5]?
A: 7 h

Q: What about the Cmax ([5]; read-out: Cmax (nmol/L)) of the same molecule?
A: 36 nmol/L

B4: MLC100: unconjugated GLP-1/GDF15 fusion protein (protein)
chain: HGEGTFTSDVSSYLEEQAAKEFIAWLVRGGGGQEPARQGDHCPLGPGRCCRLHTVRASLEDLGWADWVLSPREVQVTMCIGACPSQFRAANLHAQIKTSLHRLKPDTVPAPCCVPASYNPMVLIQKTDTGVSLQTYDDLLAKDCHCI
Q: Which results are given for B4?
A: Body weight reduction at 30 nmol/kg (% reduction compared to vehicle)(Day11) [1]: 9.9%; Cumulative food intake reduction at 30 nmol/kg (% reduction compared to vehicle)(Day11) [1]: 26.3%

B5: MLC003: unconjugated GLP-1/GDF15 fusion protein (protein)
chain: HGEGTFTSDVSSYLEEQAAKEFIAWLVRGGGGQEPGQEPGQEPGQEPGQEPGQEPGQEPGQEPGAQPGAQPARQGDHCPLGPGRCCRLHTVRASLEDLGWADWVLSPREVQVTMCIGACPSQFRAANLHAQIKTSLHRLRPDTVPAPCCVPASYNPMVLIQRTDTGVSLQTYDDLLARDCHCI
Q: With B5 as the molecule, how does the “Body weight reduction at 30 nmol/kg (% reduction compared to vehicle)(Day11)” value [1] read?
A: 15.5%

Q: What about the “Cumulative food intake reduction at 30 nmol/kg (% reduction compared to vehicle)(Day11)” value [1] of the same molecule?
A: 25.3%

Q: What about the Cmax [2] of the same molecule?
A: 24.7 nmol/L

Q: And the “exposure (Cmax and AUC)” value [2]?
A: much shorter half-lives and exposures than MLC002 and MLC004

Q: What about the “half-life (T1/2)” value [2] of the same molecule?
A: much shorter half-lives and exposures than MLC002 and MLC004

Q: What about the “AUC0-24 h” value [2] of the same molecule?
A: 0.1074 µM·h

Q: And the “Terminal t1/2” value [2]?
A: 3.5 h

Q: And the “Tmax” value [2]?
A: 1.0 h

B6: MLC020: unconjugated GLP-1/GDF15 fusion protein (protein)
chain: B5 chain with R140K, R162K, R178K
Q: What does the source list for B6?
A: Body weight reduction at 30 nmol/kg (% reduction compared to vehicle)(Day11) [1]: 17.0%; Cumulative food intake reduction at 30 nmol/kg (% reduction compared to vehicle)(Day11) [1]: 26.0%

B7: MLC102: unconjugated GLP-1/GDF15 fusion protein (protein)
chain: HGEGTFTSDVSSYLEEQAAKEFIAWLVRGGGGQEPGAQPGQEPGAQPGQEPGAQPGQEPGAQPGQEPGAQPGQEPGAQPGAQPGAQPGAQPGAQPGAQPGAQPGAQPGAQPGAQPGAQPGAQPGAQPGAQPGAQPGAQPGAQPGAQPGAQPARQGDHCPLGPGRCCRLHTVRASLEDLGWADWVLSPREVQVTMCIGACPSQFRAANLHAQIKTSLHRLKPDTVPAPCCVPASYNPMVLIQKTDTGVSLQTYDDLLAKDCHCI
Q: For B7, which “Body weight reduction at 30 nmol/kg (% reduction compared to vehicle)(Day11)” value [1] is on record?
A: 29.3%

Q: What about the “Cumulative food intake reduction at 30 nmol/kg (% reduction compared to vehicle)(Day11)” value [1] of the same molecule?
A: 36.9%

Source: US11453711B2, “Fusion proteins of GLP-1 and GDF15 and conjugates thereof” (BEIJING QL BIOPHARMACEUTICAL CO., LTD., priority 2019, dated 2022)
